In the Human Domainome abundance scans (Beltran et al. 2025):

B1: Tyrosine-protein kinase Lck, residues 63 to 120; numbered along this chain, P06239 (parent)
chain: DNLVIALHSYEPSHDGDLGFEKGEQLRILEQSGEWWKAQSLTTGQEGFIPFNFVAKAN
B2: REST corepressor 3, residues 87 to 134; numbered along this chain, Q9P2K3 (parent)
chain: DEWTVEDKVLFEQAFSFHGKSFHRIQQMLPDKTIASLVKYYYSWKKTR

Variants of: B1
Experiment: abundance fitness (aPCA) (normalised: wild type 0, dead -1); higher = more abundant; growth selection in yeast, the domain comes from the species named
Conditions: Homo sapiens

Abundance fitness, by site and new letter:
N2: E -0.541 | F 0.034 | S -0.128 | M -0.075 | C -0.309 | W -0.526 | V -0.851 | T -0.157 | R -0.32 | G -0.428 | I -0.094 | D -0.193 | Q -0.174 | P -0.713 | Y -0.243 | H 0.146 | L -0.185
L3: A -0.79
D1: Y -0.224 | G -0.115 | P -0.827 | V -0.519 | M -0.334 | E -0.036 | W -0.331 | A -0.337 | T -0.335 | N -0.115 | L -0.487

Variants of: B2
Experiment: as above
Conditions: Homo sapiens

Abundance fitness of substitutions, site by site:
S43: E -0.084 | L -0.49 | D 0.162 | V -0.076 | R 0.021 | W -0.327 | F -0.577 | N -0.172 | C -0.027 | G -0.154 | A -0.128 | K 0.134 | M -0.547 | T -0.312
R48: G 0.024 | L 0.326 | E 0.016
K45: C -0.616 | Q -0.102 | W -0.61 | L -0.597 | S -0.143 | F -0.493 | Y 0.357 | A -0.336 | V -0.454 | E -0.546 | M 0.081 | I -0.424 | G -0.69 | R -0.087 | N 0.014
V38: D -0.612 | F -0.663 | W -0.575 | E -0.12 | R -0.116 | T -0.266 | C -0.647 | M -0.115 | H -0.723 | Q -0.499 | N -0.169 | K 0.393 | S -0.215 | L -0.123 | A -0.182 | Y -0.036 | I 0.279
Y40: P -0.324 | G -1.09 | E -0.318 | K -0.346 | V -0.824 | C -0.674 | R -0.964
T47: A -0.672 | Q -0.979 | V -0.752 | I -0.623 | W -0.542 | P -0.075 | R -0.071 | E -0.493 | L -0.408 | S -0.463
K39: G -0.11 | Y -0.193 | L -0.732 | N -0.276 | H 0.075 | S -0.168 | M -0.748 | P -0.86 | R -0.221 | W -0.67 | D -0.575 | E -0.574 | C -0.546 | T -0.422 | V -0.741 | A -0.481
K46: L -0.645 | T -0.756 | S -0.467 | F -0.54 | G -0.202 | A -0.053 | E -0.575 | P -0.782 | W -0.729 | V -0.399 | H 0.242
L37: I -0.35 | K -0.714 | T -0.542 | M -0.711 | V -0.618 | R -0.885 | S -0.773
Y41: F -0.644 | W -0.574 | G -0.836 | V -0.657 | R -0.654 | I -0.599 | H -0.52 | E -0.491 | K -0.398 | A -0.817
W44: D 0.738 | R -0.541 | S -0.548 | K -0.393 | G -0.649 | L -0.329 | V -1 | A -0.78 | T -0.394 | F 0.414
Y42: A -0.234 | G -0.036 | R 0.234 | C -0.132 | T 0.103 | D 0.252 | N 0.216 | E 0.203 | H -0.236 | P -0.821 | L 0.015 | F -0.555 | I -0.11 | M 0.311 | W 0.056 | V 0.02 | Q -0.117 | S 0.102
